The results in this text go back to US20250388650A1 (ENOSI THERAPEUTICS, published 2025).

One assay concerns the target NRG1 (UniProt Q02297). The assay is described as follows: cell-based or functional assay.
Assay [1] has as its target EN2320 (HER3/Fc homodimer) (human, UniProt P21860 20-640). The assay is described as follows: SPR (Biacore 8K), trap on anti-human Fc chip.
For a further assay, the target named is T1, HF310 (HER3-500) (human, UniProt P21860 20-519).
T1 construct: also called HER3-501; HF310T
In words: 125I-HRG cross-linking normalised by anti-HER3 Western blot densitometry.

Sequence of EN2320 (HER3/Fc homodimer) (P21860 20-640 Y265A): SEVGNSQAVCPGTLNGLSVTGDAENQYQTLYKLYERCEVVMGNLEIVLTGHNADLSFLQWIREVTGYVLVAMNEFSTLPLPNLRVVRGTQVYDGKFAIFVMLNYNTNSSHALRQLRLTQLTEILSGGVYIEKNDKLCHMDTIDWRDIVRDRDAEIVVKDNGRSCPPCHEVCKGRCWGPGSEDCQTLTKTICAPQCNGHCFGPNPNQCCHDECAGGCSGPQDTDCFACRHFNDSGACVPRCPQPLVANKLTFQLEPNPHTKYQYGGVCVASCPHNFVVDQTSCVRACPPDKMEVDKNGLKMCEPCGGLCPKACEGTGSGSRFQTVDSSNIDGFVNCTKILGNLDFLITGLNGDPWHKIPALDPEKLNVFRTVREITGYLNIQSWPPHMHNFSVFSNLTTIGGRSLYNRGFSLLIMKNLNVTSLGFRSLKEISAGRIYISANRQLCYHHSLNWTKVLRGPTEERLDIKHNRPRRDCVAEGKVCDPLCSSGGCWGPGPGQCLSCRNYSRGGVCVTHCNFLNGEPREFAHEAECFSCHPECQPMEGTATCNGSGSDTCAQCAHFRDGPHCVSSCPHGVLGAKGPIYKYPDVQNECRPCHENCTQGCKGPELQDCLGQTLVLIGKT
T1 sequence (P21860 20-519 limits assumed): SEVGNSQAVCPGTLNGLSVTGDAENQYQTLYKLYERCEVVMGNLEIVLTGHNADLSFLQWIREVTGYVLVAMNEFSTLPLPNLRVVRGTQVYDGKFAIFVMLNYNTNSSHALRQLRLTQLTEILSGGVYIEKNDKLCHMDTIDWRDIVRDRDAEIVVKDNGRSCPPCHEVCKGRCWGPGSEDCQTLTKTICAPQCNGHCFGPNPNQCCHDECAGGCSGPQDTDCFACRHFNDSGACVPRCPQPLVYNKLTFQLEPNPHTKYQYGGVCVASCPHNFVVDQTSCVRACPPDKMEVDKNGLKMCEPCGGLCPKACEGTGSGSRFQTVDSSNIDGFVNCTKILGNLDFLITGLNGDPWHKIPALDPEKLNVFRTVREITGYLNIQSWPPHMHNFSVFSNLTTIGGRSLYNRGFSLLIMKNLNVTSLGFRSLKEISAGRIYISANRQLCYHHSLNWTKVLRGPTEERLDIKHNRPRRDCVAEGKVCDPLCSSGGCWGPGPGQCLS
Description for HF310 (HER3-500): Binding was performed by mixing increasing amounts of supernatants (from 2.5 μl-20 μl of supernatant) with 5 nM of ¹²⁵I-HRG in a total volume of 20 μl of Hepes buffer (pH 7.5) at room temperature for 2 hours. 1 mM of the BS₃ crosslinker was added at the end of the binding assay to cross-link the bound molecules. Binding reactions were separated on an SDS-PAGE gel. The protein gel was dried and exposed to a film for 2 and 6 hours.
A parallel Western blot with an anti-HER3 antibody (R&D Systems), followed by densitometry was used to estimate relative HER3-derivative levels and then to normalize ligand binding to each protein based on equal number of binding sites, which are the equivalent to anti-HER3 binding sites.

In the case of “HER3^Y246A/Fc (from UniProt P21860 20-640) (Fc fusion)”, the Approximate EC50, inhibition of NRG1-β-induced HER3 phosphorylation (MCF7 cells, phosphotyrosine ELISA) with NRG1 was found to be 1.5 nM.

B1: NRG2-beta (ligand, UniProt O14511-3 341-405, looked up)
chain: HARKCNETAKSYCVNGGVCYYIEGINQLSCKCPNGFFGQRCLEKLPLRLYMPDPKQKHLGFELKE
As to B1, in assay [1], the Kd came to 43.3 nM, the dissociation rate constant (koff) turned out to be 0.0247 s⁻¹ and the on-rate constant (kon) came to 571000 M⁻¹ s⁻¹.

B2: heregulin (HRG) (ligand, UniProt Q02297-6 177-241, looked up)
chain: SHLVKCAEKEKTFCVNGGECFMVKDLSNPSRYLCKCPNEFTGDRCQNYVMASFYKHLGIEFMEAE
modifications: also: 125I label, site not given here
notes: also called HRG1β1
For the molecule B2, the binding result with HF310 (HER3-500) is on record as “binds”.

B3: NRG1 (ligand, UniProt Q02297-6 177-241, looked up)
chain: SHLVKCAEKEKTFCVNGGECFMVKDLSNPSRYLCKCPNEFTGDRCQNYVMASFYKHLGIEFMEAE
notes: also called NRG1_R&D; NRG1-R&D
In the case of B3, in assay [1], the Kd was 0.389 nM, the dissociation rate constant (koff) was 0.379 s⁻¹ and the on-rate constant (kon) was 9.76e+08 M⁻¹ s⁻¹.
